Laboratory results as given in paper PMC3887004.

Target: F-actin (actin from rabbit skeletal muscle) (rabbit) (UniProt P68135)

run length λ of Qdot-labelled myosin moving along immobilised actin filaments (stepping assay): 2.9 µm
Substance: Myo IX headΔext (motor domain lacking the N-terminal extension) (domain or fragment)
